Measurements taken from publication PMC10550236.

Legend:
[1] = target: CC^DD, CC fragment with glutamic acid replaced with aspartic acid at two core hydrophilic positions (Apis mellifera); assay: SDS-PAGE under oligomer-forming (very low denaturation) conditions with Western blot; myc-tagged proteins translated in reticulocyte lysate; native loading buffer with no SDS; 0.01% SDS in the gel, 0.15% SDS as running buffer; anti-myc detection; complexes and monomers quantified by chemiluminescence
[2] = target: Fem proteins (Apis mellifera); assay: SDS-PAGE under oligomer-forming (very low denaturation) conditions with Western blot; complexation of Fem proteins (fig. S6); the text does not name the method, taken from the experiments on Csd that precede it

Row | reduction of homotrimer formation compared to the WT [1] [%] | stoichiometry N [2] | Substance
1 | 50 to 90 | – | CC^DD, CC fragment with glutamic acid replaced with aspartic acid at two core hydrophilic positions
2 | – | 3 | Fem proteins (natural protein)
